According to patent US20200207829A1, “CHIMERIC RECEPTORS” (Oxford University Innovation Limited, priority 2017, published 2020):

Columns and labels:
Test in all cases: cell-based or functional assay
[1] = target: dCas9(N/C)-synBDKRB2
[2] = target: VEGFR2:TEV(N)-NES-dCas9(N)/VEGFR1:TEV(C)-NLS-dCas9(C)VP64 heterodimer, both with TCS(QG)
[3] = target: dCas9(N/C)-synVEGFR1/2RI
[4] = target: dCas9(N/C)-synVEGFR1/2 (heterodimer of dCas9(N)-synVEGFR2 with TCS(QL) and dCas9(C)-synVEGFR1 with TCS(QG))
[5] = target: TMt-dCas9(N/C)VP64
[6] = target: TMt-NES-dCas9VP64

Chain of VEGFA121 (P15692 other isoform, or with tags, fused parts or gaps limits assumed): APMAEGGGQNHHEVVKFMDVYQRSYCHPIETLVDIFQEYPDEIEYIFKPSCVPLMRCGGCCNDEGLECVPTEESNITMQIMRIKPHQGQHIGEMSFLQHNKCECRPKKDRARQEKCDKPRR

With “Bradykinin (from UniProt P01042 381-389) (peptide)” the fold increase in EYFP output activation score (HTLA cells) [1] was > 900 fold and the half-maximal effective agonist concentration (EC50), EYFP reporter dose-response, 0.01 nM-10 µM bradykinin [1] was 0.603 µM.

“VEGFA121 (from UniProt P15692 181-395) (ligand)” was tested, and the EYFP activation score, VEGFA121-dependent ON/OFF fold differential (HEK-293T reporter assay) [2] was 5.5 fold, the EYFP target gene induction with VEGFA121 and rapamycin together (AND gate, with FRB-VP64) [3] was > 90 fold and the ASCL1 mRNA levels, RT-qPCR (FIG. 2F legend) [4] was 50 fold. It also gave an ASCL1 mRNA levels, RT-qPCR, relative to the no-agonist condition [4] of 48.3 fold, a TNFα mRNA, RT-qPCR, relative to no-agonist conditions [4] of 18 fold and a TSP-1 mRNA, RT-qPCR, relative to no-agonist conditions [4] of 16.2 fold. It also gave a fold increase in EYFP activation score (FIG. 2D) [4] of 1180 fold and a fold increase in EYFP activation score (HEK-293T reporter assay) [4] of 1000 fold.

“TEV protease (from UniProt P04517 2038-2273) (enzyme)” was tested, and the fold increase in output reporter activation score [5] was 234 fold and the fold increase in reporter activation score upon TEV expression [6] was 35 fold.
